Measurements taken from article PMC6325061.

Target: phytochrome B (PhyB), amino acids 1-651, biotinylated (Arabidopsis thaliana) (UniProt P14713)
UniProt P14713, sequence (P14713 1-651): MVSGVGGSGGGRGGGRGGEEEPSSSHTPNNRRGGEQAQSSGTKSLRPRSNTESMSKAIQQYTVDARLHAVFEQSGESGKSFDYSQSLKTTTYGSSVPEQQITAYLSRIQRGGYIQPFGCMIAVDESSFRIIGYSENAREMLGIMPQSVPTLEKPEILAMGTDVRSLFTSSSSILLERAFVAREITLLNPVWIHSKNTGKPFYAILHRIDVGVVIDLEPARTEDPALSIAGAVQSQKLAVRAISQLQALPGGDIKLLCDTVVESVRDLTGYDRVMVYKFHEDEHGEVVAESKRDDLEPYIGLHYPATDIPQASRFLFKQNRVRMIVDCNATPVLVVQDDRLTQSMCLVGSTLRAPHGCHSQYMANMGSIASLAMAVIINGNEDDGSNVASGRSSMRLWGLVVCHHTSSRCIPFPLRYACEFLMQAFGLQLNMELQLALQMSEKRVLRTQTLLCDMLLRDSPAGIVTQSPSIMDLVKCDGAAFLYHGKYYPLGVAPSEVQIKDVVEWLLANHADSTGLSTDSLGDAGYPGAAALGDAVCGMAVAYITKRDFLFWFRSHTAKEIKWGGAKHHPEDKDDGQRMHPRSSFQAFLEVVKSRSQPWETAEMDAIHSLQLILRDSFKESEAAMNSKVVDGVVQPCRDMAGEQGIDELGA

cells with paxillin clustering at the cellular periphery, HeLa stably expressing OptoIntegrin on PhyB (1–651)-coated glass, constant 660 nm light: 80 % of cells | cells with paxillin clustering at the cellular periphery, HeLa stably expressing OptoIntegrin on PhyB (1–651)-coated glass, treated with far-red (740 nm) light: 20 % of cells | cells with paxillin clusters at the edges, HEK-293T stably expressing OptoIntegrin on PhyB (1–651)-coated glass, constant 660 nm light: 55 % of cells | cells with paxillin clusters, HEK-293T stably expressing OptoIntegrin on PhyB (1–651)-coated glass, 1.5 h 660 nm then switched to 740 nm for 0.5 h: 40 % of cells
Substance: OptoIntegrin: human integrin αVβ3 with PIF^S inserted between Met180 and Lys181 of the β subunit (construct pJB005) (from UniProt Q8L5W7 1-100; P06756 31-1048) (receptor)
